Experimental data reported in publication PMC11535050 (The EMBO Journal, 2024).

B1: NatT toxin (PA1030), His-tagged, wild type (enzyme)
chain: SEIWRQCKGERHIRPLQGRLVRLVESQEQVATLQLVDTLEEQALLEELLESSKPPVPADAEPLHYLLKTPFRYPPLRWGSRFGRRHEPSLFYAALKLETAMAESAYYRCVLWSGMVVPPPSGRILSEHASFEAGWKVERGIRLQAPPFSDHEAALTDIADYRAPQELGSAMRSAGVQAFEYRSARCPERGCNVALFTPAAFTEKRPRNLTPWLCETTAGYVAFKPAHVPGSPKIFSWELFLVDGKLPHPA
notes: also called NAD+ degrading toxin; RES domain toxin; source: E. coli BL21 (DE3), pRSF-Duet-1, co-expressed with NatR, purified as a complex (HisTrap, SEC)

Key:
[1] = target: NatR anti-toxin (PA1029), co-expressed with His-tagged NatT in E. coli (Pseudomonas aeruginosa); test: mass photometry; co-purified NatR-NatT complexes at a final concentration of 10 nM, 50 mM Bicine pH 8.5, 50 mM KCl, Refeyn OneMP
[2] = target: NatT toxin (PA1030), His-tagged, wild type (Pseudomonas aeruginosa) (UniProt Q9I4U4); test: as above
[3] = target: NatR anti-toxin (PA1029), co-expressed with His-tagged NatT in E. coli (Pseudomonas aeruginosa); test: crystal structure; NatR-NatT wild-type complex, sitting drop, 2.5 mg/ml, 0.2 M sodium sulfate, 0.1 M Bis-Tris propane 7.5, 20% PEG 3350, 20 C
[4] = target: the molecule itself; test: as above

| Molecule | stoichiometry N [1] | stoichiometry N (NatR per NatT) [2] | stoichiometry N [3] | stoichiometry N [4] |
| --- | --- | --- | --- | --- |
| NatR anti-toxin (PA1029), co-expressed with His-tagged NatT in E. coli (natural protein) | 2 | 2 | 2 | – |
| B1 | – | – | – | 2 |
